# Laboratory results: patent US20060287320A1, “Preparation of thioarabinofuranosyl compounds and use thereof” (Southern Research Institute, priority 1998, published 2006)
# Tested on: T1, Nc1ccn([C@@H]2S[C@H](CO)[C@@H](O)[C@@H]2O)c(=O)n1
# T1 construct: endogenous in cells; host or cells: Molt-4 cells (enzyme purified from the cells)
# Test: purified protein, by the assay type
# Type: biochemical
# Details: other: dCyd kinase activity from Molt-4 cells
# Experimental: Each assay was done in duplicate and the kinetic constants were determined from linear double-reciprocal plots of 1/velocity versus 1/concentration of the substrate. The best line was determined by linear regression from at least 5 datum points, and the Km and Vmax were determined from the x and y intercepts.
# dCyd Kinase Activity Isolated from Molt-4 Cells (Homo sapiens), sequence (chain, as listed by the source): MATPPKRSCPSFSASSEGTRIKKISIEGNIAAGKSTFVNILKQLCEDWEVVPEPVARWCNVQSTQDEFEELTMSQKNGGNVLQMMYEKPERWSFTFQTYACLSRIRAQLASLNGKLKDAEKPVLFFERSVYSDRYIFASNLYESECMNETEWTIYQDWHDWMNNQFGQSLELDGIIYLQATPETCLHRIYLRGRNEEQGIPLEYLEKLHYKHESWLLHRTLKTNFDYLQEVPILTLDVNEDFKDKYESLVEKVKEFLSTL
substance,measurement,value
dCyd Kinase Activity Isolated from Molt-4 Cells (Homo sapiens),Km,93 µM
